Laboratory results: patent publication US20110098449A1

Target: Human recombinant hepatocyte growth factor activator (HGFA) (human) (UniProt Q04756)
Assay: cell-based or functional assay

Chain of UniProt Q04756 (Q04756 373-655 limits assumed): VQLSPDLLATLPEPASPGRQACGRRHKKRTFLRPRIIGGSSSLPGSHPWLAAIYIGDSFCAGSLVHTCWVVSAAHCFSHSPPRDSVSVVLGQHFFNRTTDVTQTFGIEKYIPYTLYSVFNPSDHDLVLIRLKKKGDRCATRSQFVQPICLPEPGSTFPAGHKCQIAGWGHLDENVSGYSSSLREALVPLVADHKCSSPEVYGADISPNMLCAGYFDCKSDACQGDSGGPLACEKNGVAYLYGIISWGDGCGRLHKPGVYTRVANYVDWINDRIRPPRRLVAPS

inhibition of HGFA-mediated 125I-proHGF conversion (SDS-PAGE): 1 µM
Substance: Soluble HAI-1B (hepatocyte growth factor activator inhibitor-1B) (from UniProt O43278 36-465)
